Test: soluble on expression in E. coli; label from the status in PepcDB or PDB records

Row | Sequence | soluble on expression in E. coli
1 | MAVAANKRSVMTLFSGPTDIYSHQVRIVLAEKGVSFEIEHVEKDNPPQDLIDLNPNQSVPTLVDRELTLWESRIIMEYLDERFPHPPLMPVYPVARGESRLYMHRIEKDWYTLMNTIINGSASEADAARKQLREELLAIAPVFGQKPYFLSDEFSLVDCYLAPLLWRLPQLGIEFSGPGAKELKGYMTRVFERDSFLASLTEAEREMRLGRS | soluble
2 | MKPKTLSPILTAKGVRLAIAVGRFNERVTKLLLEGALEAYARLGGDPAEVLVAWVPGSFELPLVAKRLAQRPDVDAVVALGAVIRGETPHFEYVAGQAASGLMQAMLQTEKPIVFGVLTTNTPEEAQERAGGKAGNKGAEAVFTAIEMVRLLEAISR | soluble
3 | SSRKSGIGHEASLKRKAEEKLESYRKKIHMKNQAEEKAAEQFRMRLKNKQDEMKLEGDLRRSQRACQQLDVQKNIQVPREAWYWLRLEEETEEDEEEKEQDEDEYKSEDLSVLEKLQILTSYLREEHLYCIWCGTAYEDKEDLSSNCPGPTSADHD | soluble
4 | MSLDIKVQKTEDLIPYEKNPRHNEGAITAVAKSIEKFGFKVPIVVDASNVIVNGHTRLKAAKYLGLKEVPTIIADDLTPEQIKAFRLADNKVGEIATWDEELLNAELDELADLDLDFDMTEFGFDLPDIEGEEVEVIEDEFEEELPAEPISKLGDIYQLGRHRLMCGDSTNSLEVEKLMGNKKADLLITDPPYNVAYEGKGKEALTIKNDSKETNEFHSFLYEAFSAAINNMKLGSSFYVWYASSEVVNFHTALEEAGFLVKQELIWNKNSMVLSRQDYHWKHEPCLYGWASGGSHSWYSDRKQTTILNFDRPTVNKEHPTMKPVALFDYQIKNSSKQGDCILDLFGGSGTTLIACEQNEREAYLMELDPRYVDVIIARWEAFTGEVAVKISGNDTAVVDGEGHHHHHH | soluble
5 | MGSDKIHHHHHHDQEPPLYVNENDIFTSPTRIEATLNGLYAAIKNTGTKSLMGGKSYLVFDNRGDDVINISNNLVTLFNTYNMNVGITDAENADTWTYAYLAINKVNTFLQSLEGAREVAGENYDRYVQEAKFVRALAYYYLNNLYPTPYSVNPDAKSVPLRLTAEAGTENNNMPRSTVKQIYEHILSDLENISALDTEVNTYTGVTHATQAAANMLKMRVYMAMNEWDKAITAGELVTGYSLPEDVTLIYKAPYFSQESIFSLPMADTNIPNTQQSLAEYYYDGKIMLIDTKSGIMSKPDYSLATDKRIIAFKGEKDLLMKFTDAKTKLQWVPIFRYAETLLDLAECYANKAGGEATAKSLLKQVRGRSVDAATDPLNIDNLSGDALKEAIYNEKRLEFIGEGIRGIDIMRRGEHFIKVGENETINVGPSDEKYTWPIPQVELLLNKDINK | not soluble
6 | MGSDKIHHHHHHMEFYERAKKYEYKFTDTEDMIIEYMRKNKEEIVKLSIQSLADKFFTVPNTIVRLCKKMEYDGFSQLKNNLKEELKNENKEPKNGFESDIKKTLELIDYEKINKVADIIQKSRSIIVYGIGQNIPLCEILVKEIRGGHDNITYYSQRHEVLHDIGKLGEQDMFFALSLSGETKEVIEAAKTAVNKGCKVVALTHICENQLQQIADISLYCYSTIKQVNGYNISDKVPIMMIMRAIIEQYWLR | not soluble
7 | MGLSDEQLGKIVRFHLKEDKQAHERIKQKMMESMKAFRKAVGEPATDDETLRKLGQAHIDSFNEMVKYHIDERKAVRSILTPEQIGKLEHHHHHH | not soluble
8 | MGSDKIHHHHHHMESIKQIYRMGHGPSSSHTMGPMRAAQMFLERNRGAVRFNVTLYGSLAATGKGHMTDAAILEVLQPVAKTNITWEPKTFLPFHPNGMLFESYNESGEELDTWTVYSIGGGTLANESFNELRTEQVYDMHTIKEIQAWCEKTGHSYWEYVEQHEGPSIWDYLAEVWEVMQDAVRRGLEAEGILPGGLGIRRKASDYMIRAKGYGSSIKSRGMVYAYALAVSEENACGGKIVTAPTCGSCGVMPAVLYHLKETREFRDSRILRALATAGLFGNVVRTNASVSGAEVGCQGEVGVACAMAAAAASQLFGGTPAQIEYAAEMGLEHHLGLTCDPVCGLVQIPCIERNAFAAARALDANTFSNFSDGKHRVSFDQVVEVMRQTGNDLPSLYKETSEGGLAKNMENSNN | not soluble
9 | GQDRSPIETQNVETVLRLFDEGWGAQDGWRDVWRETMTPGFRSIFHSNQAVEGIEQAIAFNAVLFEGFPRLEVVVENVTVEGDNVVVQARLTGAQDGPFLGVPPSGQMVDVPDVTLFTLADGQVIEMRYFTDLLAVMTAISAPPEN | soluble
10 | MSSKLKISLSCGDYDRTRALFDGRAPIEGCEVTAVPLEPEEAFHRAFRYHEYDVTEISMSSHMMTTARGDNEYIAIPAFLSRVFRHSGIYVRTDRDIDKPQDLRGKTIGVPEYQITANVWIRGILEDAYGVKPQDIKWRRGGIEEPGRGERAPIELPDGIDLQQIPDDKTLSDMLEAGEIDGYIGARAPSCFLRGAPNVGRLFNDYLKTEQDYFRETRIFPIMHMVGIRRSLVEQNPWLPVSVYKAFLKAKMLAVKELNEICHLAVTLPWMVHHYNAARELMGDDYWPYGLDANRHVIETFARYHYGQGLSRRLVKPEELFAASSLDLSKIMAGDPNSLEHHHHHH | not soluble
11 | MGSDKIHHHHHHMTYLVTGATGGLGGYALNYLKELVPMSDIYALVRSEEKGADLKAAGFNIRVGDYSDAESMKQAFVGIDRVLFVSGAPGNRQVEHENVVNAAKAAGVSYIAYTSFAGADKSTSALAEDHFFTEKVIEKSGIAHTFLRNNWYFENEMPMIGGALSAGKFVYAAENGKVGWALKREYAEVAAKAVAGADFPEILELSGPLMTYEELTKALKEATGKDFDVISSDDKGFVENLVSAGLPQPVAEMFLSFQHDIKNDQLDVTSDDFEKALGKPLTNRVDALRELLK | not soluble
12 | MSLNERAKIKIIPLGGINEIGKNITAIEYKEDIIIIDCGLKFPDDDMFGIDIVIPDVSYLIKNSEKIKGIFLTHGHEDHIGALPYVLRQLNVPVYGTKLTLGIVETKLKEHGLLASTELVRVKPKDIIKLDSVSVEFIKTNHSIADSVAIAVHTPLGVVLHTGDFKIDYTPIDGEMMDFGRLAELGRKGVLVLMADSTNVERPGYTMTEKVVGETFLRLFGKAKGRLIVATFASNVHRIQQIITAAEAYEKKVAVSGRSMENIVQVAIELGYLTVGKDVLVPVDQISKYPNEKIVVITTGSQGEPMSALARMAASEHRKINVIPGDTVIISATPIPGNEKFVSKVINQLFKKGAQVIYDSQEKIHVSGHACQEELKLMQALVKPKFFVPVHGEYRHLKKHGELAMEVGLSEKNLLIPENGDVIEVAREGHHHHHH | soluble
13 | MKRVLVLGATGRTGNFVIKELSKYKSIQLIAGLRSQKDKERLPKINAAIETVVIDIADVCSLRKALTDSDIVVQAIRLRGDISENALIQLDQRIHQAFNPSRKTHLVTVGGAGALKLEANQRFWENEYFPRQTLPRGIAHARLRDYLEKSFFNHTWTYLIPPPVYVAEGARTGSYNRYSSAQKEDFFLSKSISYADFALAIGNAVMEEWQGVYLIAEKELEHHHHHH | not soluble
14 | MGSDKIHHHHHHMTEEINYFWLNCGYNRWNHNEPLVGQTALFESGAHFNPTQGYRAFKKAKAGDQVIFYQVQTDSGLLGIGEIISVQSGAQNKIRVEFKFKETLKPLTTDYLKRSETLDFRMSNMRETLFNQIRESEFELIVSLGKGKSKIPRYFLLAETEAFEPGKNYTIFTHTFNGIKRNGYHFYTQLEVGDNIIIYNKYQNQSVIGIGEVSKHIHEKPPIPGRTNSTAIEIFYEKDIKPISLGHLNKHPKLKNLYFLQENAKQSIASMSQAQYDAILDMSMNNGIKHPFETVKKAELSTQNAEDDSLKPFVLLVVEQKGEGLKAAEELLQKTNANPVITSGHPDFTEDMLYGKYLPNESGALYYREGFITHLMPKKDKSYLVIDNFNRIDVDIFQTYINVLEGYEVTLPRYNKDGSMIKWSKNKDSFYHFNPNWHIVGITYDSIEKIKQKYSSQFLKYTRIVKVNHD | not soluble
15 | MFSSSALSYINGFCFSTAGYSPEFCHAVRFVLIEEGALNQDGTPKPNLGYVNDPKDKGGETKGGISKRAFPNIDIAALTLDGIVALYHRYFWKPAYCQDWPASVALYTFDAAVQHGVTNALLMLQEIAGTKADGKVGPATRNAVNSADKEYLCARYGLRRARFYARIIKKDTSQTRFIEGWHNRLVNLTNAAWELQ | soluble
16 | MLPTRSLLPFFLAPALLASAASQAAMEALDNDSLSQVTGQAGISLRLDLRAGAARVAWVDDGGSLSLRNLVIDNGCVKAGDCPDGRGGNIPLGAAQLGLSLPIFGVEQPTLALDVTTGSGGGQQLAISLPDLATINDQLIASGLPAQRIRLRVASDLYIGDNSIGRIELRDITDLRGTIKVWGH | not soluble

From the DeepSol protein solubility set
